Patent US20230158141A1 (YAFEI SHANGHAI BIOLOG MEDICINE SCIENCE AND TECHNOLOGY, published 2023)
Where a chain is given by its changes, count along the chain named. In names and notes the source's numbering stands.

T1: IL-10R2-Fc/His (UniProt Q08334 20-220, limits assumed)
T1 sequence (looked up): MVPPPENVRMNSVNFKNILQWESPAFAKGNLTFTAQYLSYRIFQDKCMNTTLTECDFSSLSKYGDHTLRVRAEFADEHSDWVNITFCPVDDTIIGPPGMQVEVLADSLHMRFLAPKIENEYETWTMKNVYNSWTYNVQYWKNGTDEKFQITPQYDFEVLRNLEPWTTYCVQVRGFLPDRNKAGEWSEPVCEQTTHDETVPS

T2: IL-10R1-Fc (UniProt Q13651 22-235, limits assumed)
T2 sequence (looked up): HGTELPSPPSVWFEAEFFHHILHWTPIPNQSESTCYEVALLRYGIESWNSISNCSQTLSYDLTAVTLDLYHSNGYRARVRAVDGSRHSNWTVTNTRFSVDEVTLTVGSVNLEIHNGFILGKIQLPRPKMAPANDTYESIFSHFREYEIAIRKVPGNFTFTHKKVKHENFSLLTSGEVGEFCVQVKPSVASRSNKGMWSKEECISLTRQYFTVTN

B1: IL-10 Lys119Cys-S48 (ligand, human, UniProt P22301 19-178, looked up)
chain: SPGQGTQSENSCTHFPGNLPNMLRDLRDAFSRVKTFFQMKDQLDNLLLKESLLEDFKGYLGCQALSEMIQFYLEEVMPQAENQDPDIKAHVNSLGENLKTLRLRLRRCHRFLPCENKSCAVEQVKNAFNKLQEKGIYKAMSEFDIFINYIEAYMTMKIRN
modifications: S48 on Cys 119
notes: mature
B2: IL-10 Asp25Cys-S48 (ligand, human, UniProt P22301 19-178, looked up)
chain: B1 chain with D25C, C119K
modifications: S48 on Cys 25
notes: mature
B3: IL-10 Arg107Cys-R4-20 (ligand, human, UniProt P22301 19-178, looked up)
chain: B1 chain with R107C, C119K
modifications: R4-20 on Cys 107
notes: mature
B4: IL-10 His90Cys-R4-19 (ligand, human, UniProt P22301 19-178, looked up)
chain: B1 chain with H90C, C119K
modifications: R4-19 on Cys 90
notes: mature
B5: IL-10 Met22Cys-S48 (ligand, human, UniProt P22301 19-178, looked up)
chain: B1 chain with M22C, C119K
modifications: S48 on Cys 22
notes: mature
B6: IL-10 Thr100Cys-S48 (ligand, human, UniProt P22301 19-178, looked up)
chain: B1 chain with T100C, C119K
modifications: S48 on Cys 100
notes: mature
B7: IL-10 Arg104Cys-R4-20 (ligand, human, UniProt P22301 19-178, looked up)
chain: B1 chain with R104C, C119K
modifications: R4-20 on Cys 104
notes: mature
B8: IL-10 Asn97Cys-S48 (ligand, human, UniProt P22301 19-178, looked up)
chain: B1 chain with N97C, C119K
modifications: S48 on Cys 97
notes: mature
B9: IL-10 Arg32Cys-S48 (ligand, human, UniProt P22301 19-178, looked up)
chain: B1 chain with R32C, C119K
modifications: S48 on Cys 32
notes: mature
B10: IL-10 Thr35Cys-S48 (ligand, human, UniProt P22301 19-178, looked up)
chain: B1 chain with T35C, C119K
modifications: S48 on Cys 35
notes: mature
B11: IL-10 Ser31Cys-R4-2 (ligand, human, UniProt P22301 19-178, looked up)
chain: B1 chain with S31C, C119K
modifications: R4-2 on Cys 31
notes: mature
B12: IL-10 Ser31Cys-S48 (ligand, human, UniProt P22301 19-178, looked up)
chain: B1 chain with S31C, C119K
modifications: S48 on Cys 31
notes: mature
B13: IL-10 Lys130Cys-R4-7 (ligand, human, UniProt P22301 19-178, looked up)
chain: B1 chain with C119K, K130C
modifications: R4-7 on Cys 130
notes: mature
B14: IL-10 Lys119Cys-R4-7 (ligand, human, UniProt P22301 19-178, looked up)
chain: B1 chain
modifications: R4-7 on Cys 119
notes: mature
B15: IL-10 Lys34Cys-R4-7 (ligand, human, UniProt P22301 19-178, looked up)
chain: B1 chain with K34C, C119K
modifications: R4-7 on Cys 34
notes: mature
B16: IL-10 Lys34Cys-S48 (ligand, human, UniProt P22301 19-178, looked up)
chain: B1 chain with K34C, C119K
modifications: S48 on Cys 34
notes: mature; also called IL10-K34C-S48
B17: IL-10 Asn18Cys-R4-18 (ligand, human, UniProt P22301 19-178, looked up)
chain: B1 chain with N18C, C119K
modifications: R4-18 on Cys 18
notes: mature
B18: IL-10 Thr100Cys-R4-7 (ligand, human, UniProt P22301 19-178, looked up)
chain: B1 chain with T100C, C119K
modifications: R4-7 on Cys 100
notes: mature
B19: IL-10 Met22Cys-R4-1 (ligand, human, UniProt P22301 19-178, looked up)
chain: B1 chain with M22C, C119K
modifications: R4-1 on Cys 22
notes: mature
B20: IL-10 Lys130Cys-S48 (ligand, human, UniProt P22301 19-178, looked up)
chain: B1 chain with C119K, K130C
modifications: S48 on Cys 130
notes: mature
B21: anti-PD-1 antibody 2 light chain A34C (antibody, human IgG4 S228P, kappa, V domains shown)
VH: QVQLVESGGGVVQPGRSLRLDCKASGITFSNSGMHWVRQAPGKGLEWVAVIWYDGSKRYYADSVKGRFTISRDNSKNTLFLQMNSLRAEDTAVYYCATNDDYWGQGTLVTVSS
VL: EIVLTQSPATLSLSPGERATLSCRASQSVSSYLCWYQQKPGQAPRLLIYDASNRATGIPARFSGSGSGTDFTLTISSLEPEDFAVYYCQQSSNWPRTFGQGTKVEIKR
B22: anti-PD-1 antibody 2 light chain S31C (antibody, human IgG4 S228P, kappa, V domains shown)
VH: B21 VH
VL: B21 VL with S31C, C34A
B23: anti-PD-1 antibody 2 light chain G57C (antibody, human IgG4 S228P, kappa, V domains shown)
VH: B21 VH
VL: B21 VL with C34A, G57C
B24: anti-PD-1 antibody 2 light chain S26C (antibody, human IgG4 S228P, kappa, V domains shown)
VH: B21 VH
VL: B21 VL with S26C, C34A
B25: anti-PD-1 antibody 2 light chain S28C (antibody, human IgG4 S228P, kappa, V domains shown)
VH: B21 VH
VL: B21 VL with S28C, C34A
B26: anti-PD-1 antibody 2 light chain S30C (antibody, human IgG4 S228P, kappa, V domains shown)
VH: B21 VH
VL: B21 VL with S30C, C34A
B27: anti-PD-1 antibody 1 light chain G28C (antibody, human IgG4 S228P, kappa, V domains shown)
VH: QVQLVQSGVEVKKPGASVKVSCKASGYTFTNYYMYWVRQAPGQGLEWMGGINPSNGGTNFNEKFKNRVTLTTDSSTTTAYMELKSLQFDDTAVYYCARRDYRFDMGFDYWGQGTTVTVSS
VL: EIVLTQSPATLSLSPGERATLSCRASKCVSTSGYSYLHWYQQKPGQAPRLLIYLASYLESGVPARFSGSGSGTDFTLTISSLEPEDFAVYYCQHSRDLPLTFGGGTKVEIKR
notes: also called PD-1-Ab1-Gly28Cys; PD1 Ab-C28
B28: anti-PD-1 antibody 1 light chain G61C (antibody, human IgG4 S228P, kappa, V domains shown)
VH: B27 VH
VL: B27 VL with C28G, G61C
B29: anti-PD-1 antibody 1 light chain S26C (antibody, human IgG4 S228P, kappa, V domains shown)
VH: B27 VH
VL: B27 VL with S26C, C28G
B30: anti-PD-1 antibody 1 light chain S56C (antibody, human IgG4 S228P, kappa, V domains shown)
VH: B27 VH
VL: B27 VL with C28G, S56C
B31: anti-PD-1 antibody 1 light chain S35C (antibody, human IgG4 S228P, kappa, V domains shown)
VH: B27 VH
VL: B27 VL with C28G, S35C
B32: anti-PD-1 antibody 1 light chain S30C (antibody, human IgG4 S228P, kappa, V domains shown)
VH: B27 VH
VL: B27 VL with C28G, S30C
B33: anti-PD-1 antibody 1 light chain G33C (antibody, human IgG4 S228P, kappa, V domains shown)
VH: B27 VH
VL: B27 VL with C28G, G33C
B34: anti-PD-1 antibody 1 light chain S60C (antibody, human IgG4 S228P, kappa, V domains shown)
VH: B27 VH
VL: B27 VL with C28G, S60C
B35: anti-PD-1 antibody 1 light chain S32C (antibody, human IgG4 S228P, kappa, V domains shown)
VH: B27 VH
VL: B27 VL with C28G, S32C
B36: anti-PD-1 antibody 1 light chain S95C (antibody, human IgG4 S228P, kappa, V domains shown)
VH: B27 VH
VL: B27 VL with C28G, S95C
B37: anti-PD-1 antibody 2 HC Thr69Cys (antibody, human IgG4 S228P, kappa, V domains shown)
VH: B21 VH with T69C
VL: B21 VL with C34A
modifications: arm on Cys69 as named in each row
B38: anti-PD-1 antibody 2 HC Gly10Cys (antibody, human IgG4 S228P, kappa, V domains shown)
VH: B21 VH with G10C
VL: B21 VL with C34A
modifications: arm on Cys10 as named in each row

Each binder was assayed against T1, IL-10R2-Fc/His (assay: ELISA, IL-10R2-Fc/His coated).

Decreased fold of binding to ligand after Conjugating with S48 | Binding recovery (>60%) | Binder
4 fold | – | B1
5 fold | – | B2
– | 84% | B3
– | 79% | B4
6 fold | – | B5
8 fold | – | B6
– | 96.6% | B7
4 fold | – | B8
9 fold | – | B9
6 fold | – | B10
– | 87.4% | B11
7 fold | – | B12
– | 99.7% | B13
– | 106% | B14
– | 97.3% | B15
5 fold | – | B16
– | 99.8% | B17
– | 90.7% | B18
– | 80% | B19
3 fold | – | B20

The binders below were run against PD-1 (UniProt Q15116 25-167, limits assumed) (assay: ELISA, OD mutant/OD WT; A=90-110%).
Target sequence in this assay (Q15116 25-167 limits assumed): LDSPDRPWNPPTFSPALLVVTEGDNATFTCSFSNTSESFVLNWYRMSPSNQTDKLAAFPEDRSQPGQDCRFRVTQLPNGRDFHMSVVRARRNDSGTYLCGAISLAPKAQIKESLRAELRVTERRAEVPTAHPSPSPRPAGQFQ

binding activity (OD after mutation/OD wild type) | Binder
90 to 110% | B21
90 to 110% | B22
90 to 110% | B23
90 to 110% | B24
90 to 110% | B25
90 to 110% | B26
90 to 110% | B27
90 to 110% | B28
90 to 110% | B29
90 to 110% | B30
90 to 110% | B31
90 to 110% | B32
90 to 110% | B33
90 to 110% | B34
90 to 110% | B35
90 to 110% | B36

The binders below were run against PD-1 (UniProt Q15116 25-167, limits assumed) (assay: ELISA; S9 on the Cys).
Target sequence in this assay (Q15116 25-167 limits assumed): as above

binding activity, % of wild type | Binder
78.6% | B37
69.3% | B38

Each binder was assayed against T2, IL-10R1-Fc (assay: ELISA, IL-10R1-Fc coated).

Decreased fold of binding to ligand after Conjugating with S48 | Binding recovery (>60%) | Binder
3 fold | – | B1
3 fold | – | B2
– | 99.5% | B3
– | 86.5% | B4
5 fold | – | B5
4 fold | – | B6
– | 98.5% | B7
5 fold | – | B8
13 fold | – | B9
36 fold | – | B10
– | 125% | B11
39 fold | – | B12
– | 100% | B13
– | 99% | B14
– | 99.6% | B15
50 fold | – | B16
– | 92.3% | B17
– | 99.3% | B18
– | 96.8% | B19
3 fold | – | B20
